These results are taken from the domain aggregation screens of Martell et al. (2025).

The nature of this data set: soluble fraction after stress (log2 fold change); higher = more stays soluble; pooled small domains, quantitative proteomics. The conditions noted are these: stress: pH 4. The method in brief:
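Aggregation propensity here comes from the fold change in the soluble amount of each small protein domain after acid stress, measured in pooled custom libraries by high-throughput quantitative proteomics. The acid stress was pH 4. On the log2 scale, higher values mean more of the domain stayed soluble.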
“HMLDRNKLNELDAYIESFEDKPSHLIMILHRAQGLFGYLPKELQIYVAEKTGVPAAKVYGVVTFYSFFTMK”: the “soluble fraction (log2)” value was -0.737.

Take “HMLEDDTVNTAEGIKIGDSFAAVTKAYGTDYVAAGNTYAYSKDKMTLTFVMNNDKVSTISYSLLTS”: the “soluble fraction (log2)” value is -0.412. In the case of “HMLEDYFKEEEYTEVLKIPKEYIKGFQYYLIEDAEFVNALRAKNKTMTLFLAKKLASDYIEIIRREQ”, the “soluble fraction (log2)” value was -1.31.

Take “HMLEIGRYNTLTVLRKVDFGYYLDGLDYGDILMPAKYAATELEAGDEVDVFIYLDSSEKLIATTETPIAQ”: the “soluble fraction (log2)” value is -1.58.

On to “HMLEIQENFQNILKRMELSLSPLERRVLALYLSGYERSEIPEKTGIPLKTFDNALHRVRNKMK”, for which the “soluble fraction (log2)” value is -0.711.

Regarding “HMLEKDIGKAITILRKSYQLSISAFSMRTGYSRVHISEVESGKRKATDELISVIRNVFHLDSNWPF”, the “soluble fraction (log2)” value is -0.517. Take “HMLELDRTNLLGVFGSKSNPYALIMLSNGEMLKLSIGDQFLGWRVYAIDQTTVHVQNGKNQEILRIP”: the “soluble fraction (log2)” value was -0.772. Consider “HMLELLSMEDIQRTRVGDLIATVRQVDRQHALVLDRDPETGKPAVRGIFSLSQISLRLGLNI”, for which the “soluble fraction (log2)” value was -0.733. Consider “HMLEPGIAVLKTLMSQYRLGVADLPELGSKSNVSKLLNAVEGKKLTRQHIEALSKRFAVSPALF”, for which the “soluble fraction (log2)” value worked out at 0.114. For “HMLEPGQKVKSVVVDISGDLIYIDLGGKTEGVVELKEFYDEAGEYHVKPGDEIEVFFVSVQNGLKRFTT”, the “soluble fraction (log2)” value is -0.403. For “HMLEQISDPEVLSKLADEVLSQQEKMVMDYRKGKTAAFQGLMGQMMKKTKGKGNPAKIQEILAQKL”, the “soluble fraction (log2)” value is -0.192.

With “HMLEQLTPRELKVLQALAQGRQNKEIAAQLVISERTVKFHVSAILSKLNVGNRTEAVTVAAQRGLISL”, the “soluble fraction (log2)” value was -0.729. Take “HMLEQSYYEKTDEIIELHGAKASSLIPVMQDVQAEYRYLPGELLSYIADKLGIPLAKAYSVATFYENFS”: the “soluble fraction (log2)” value is -0.951. The figure for “HMLERKFGTSLEIKSLSKFLIENNYKKNAKYLNKLIQVLGTRSENRIIKTFFKQFPEIENIFRNQL” is -0.493. Take “HMLETADDAKRFLGAIISEKKAENLLRVYPDIIERIVAGKPVDLSLVKGIKQKTFDKLRQKVISHYSMY”: the “soluble fraction (log2)” value was -0.0382. In the case of “HMLETHRRRQIILSLLRESGMLDVDEVAARLVVSPNTIRNDFNALAAEGLLRRIRGGATLAEP”, the “soluble fraction (log2)” value is -0.171. Regarding “HMLFKNASGTVVSRIQSQVDGQINIRTGSGNAPDYAFVAKPDGAVELYHNGTKQFETGSSGVLLP”, the “soluble fraction (log2)” value was -0.527. Consider “HMLFQQPATMIGKIGVAMSDLRPSGKIKIDDEWYDGQSEGDYILKGQEIIVVQVMNAYLIVRL”, for which the “soluble fraction (log2)” value is -0.44. With “HMLFRGNGFNTLYDKQLRITQQGEFKDGRLWDGKYYRYSKAGELVRIEIYEQGRYAGNGVITDEDKA”, the “soluble fraction (log2)” value was -0.0519. For the sequence “HMLFSDSDLKSLLDKDISYVIEMYKAASKEQKRIISDMVAQKVMEKKYIDANILIQLGELTGINYMDL”, the “soluble fraction (log2)” value was -1.32.

As for “HMLFSEKLKQAMQDLHLNQIQVVGLTGKSKGSISQYISGKQVPSEATQRDIAISLGLEENYFSKK”, the “soluble fraction (log2)” value was 0.216.

On to “HMLFYSDLVRLISFAEATLGKNEFETWYMSHHQGMKYTEIAIALGISVRTVEDRIARTKNHFRKI”, for which the “soluble fraction (log2)” value is -1. Turning to “HMLGAGFDSDLTARENIFLNGALLGHSRAVMRGYYDDIVNFAELHDFMDVPVKNFSSGMTSRLAFSIATIG”, the “soluble fraction (log2)” value was 0.183.

For the sequence “HMLGARIAALRRQAGMNQGELAKKLGISPSTVGMYEQGRREPSAEMLVRLAEAFSVSTDFLLT”, the “soluble fraction (log2)” value is -0.0832. For the sequence “HMLGERIRRLRKEMGMSVTELARRVKTSPSYISEIEKGEKTPSLNLLVRIASELRTGIDYLTGL”, the “soluble fraction (log2)” value is -0.00698. On to “HMLGIGANVQKIAQERKISLKELSRRAGIPYTTIYNMVKRDSSRVSPENLQKLADALGVEIGKLYG”, for which the “soluble fraction (log2)” value was not below 0.43. As to “HMLGSQQAYTDALRLTGLPVDIEVIESDRLPFLIPMRYSLDQHLIEVNVRYPDTRAIRVQQMVEELFHA”, the “soluble fraction (log2)” value is -0.415. In the case of “HMLGVKKFGGEAVIAGNIILRQRGTKWITGSNVGIGKDHTLFAKIEGYVVFERMRGRDGQQQISIYP”, the “soluble fraction (log2)” value is -0.192.

For “HMLGYQALASAFRSKVEAGIWPIGEAIPSEARLSKEYGVAVGTIRQAIAELAEEGILIKRHGKSTMVSSG”, the “soluble fraction (log2)” value came out at 0.101. As to “HMLHEFSGVVVSILADTGPSTLKQLHRSLISSDVKMDEKELMQILDEALSSGSVTSHRKGRYLYYSANK”, the “soluble fraction (log2)” value was -0.399.

As to “HMLHIKKGDTVIVNAGESKGQQGKVLEVLVGKERAIVEGVNMVSKHTKPNAKNPQGGIVKKEAPIHISNLQ”, the “soluble fraction (log2)” value amounted to 0.0699. Take “HMLHPLLWAVDEPTPVTVRTRPEYVPDVVRWLMQPESQREHDGVVDLRYTVTHRAAFRSRIYVLGTRVTIP”: the “soluble fraction (log2)” value amounted to 0.17. For “HMLIADADSLRKQIETVLANAPNEVAAYRGGKETLMGWFVGQIMRATGGKADPKLTREILAELLQ”, the “soluble fraction (log2)” value was -0.126.

On to “HMLIADSDALRSQIESILNGNPNEVASFRAGKESLMGWFVGQVMRSTGGKADPKRTRELLQELLTK”, for which the “soluble fraction (log2)” value was -0.0841. Turning to “HMLIDSEILKKTNKITIFLIYAFFSEYLINKEKKKILIGEYIKLSKDFLTIEEVKYFNHLLDDISK”, the “soluble fraction (log2)” value was -0.304. For the sequence “HMLIDSNNYFFYKVKPKEGFYSLQKKLGVNRSEIEKHNPSLINEVLKEGMILKIPKYLLNFDLN”, the “soluble fraction (log2)” value is -0.214.

Take “HMLILTWNYPYEYPMMMRSFLQEIGISRTFLAHIKSNGELLINGRHEIVLKTLQPGDVLTMVIPPSG”: the “soluble fraction (log2)” value is -0.78. Take “HMLINLGPRIRKERRSKGISQSDFSKNLGISASYLNLLENGRRTLTVPLLIKIGNELNLSLKDL”: the “soluble fraction (log2)” value is 0.113. For the sequence “HMLISAESVKRRLEMIRHLILLGDYEDVTAQVIKLNPAANEYKLTPIIEELNGGKYQEALEKINSYLSKF”, the “soluble fraction (log2)” value was -0.127. As for “HMLISKNLLGFTIKNTSGVTFGTLKDIMWLPSNDVYVIDNNGKEYLIPVISEIVKSINYDKGSITIFP”, the “soluble fraction (log2)” value is -0.398. Take “HMLKASEVLPYVFTDKFFIDDLNLKQDQILGFLEYIDSKLPSQKLLQVSQQFQLIDFLINESKNYKNQ”: the “soluble fraction (log2)” value was -0.252. To “HMLKDININVTGLDQISNAKLINNLNLLKMNNLFFLDEKKIKKILNSNNLIEKFFIFKKYPSTLDIKVYKT” belongs 0.22; to “HMLKHNLLSELSRIEGVGAVKRKALMDKFGTVENIKRASEEELSEVAGIGPTLARTIKEQMNKDE”, -0.2; to “HMLKKRKPMSGVGVIVKGMLTGTVTGTDGSYALKARPNDELSFSFLGYKTQEVFVGSKSTIDITLVDEA”, -0.0294. As to “HMLKLEEIQPNATVRGILPDALITVVNVKWFGSEALELTYKDTSGRVANQLLFRDDQPRLEIVE”, the “soluble fraction (log2)” value was -1.12.

For the sequence “HMLKLEPYTINEINSLQELYDLGNVRALETLISIYKDKNQVYDTRFYVLDILSKYDNPLIQEALEESITN”, the “soluble fraction (log2)” value is -1.89. The figure for “HMLKLPVEYLNLKYQLMHATSLDKPNNLMKLDEKLGKIIDVYYDDLPVDEQRVVDILQSKLYSY” is -1.72. To “HMLKLYILTDGKNYVMDDPIHPGRVMYSTSPVNAKKFTFKQARALLNNKSKKLSWIRSFNMVDDSSGEKI” belongs 0.417; to “HMLKREDEVIVVAGKDKGKRGTITQLVGDDRVIVAGVNMVKRHTKPNPNLGQPGGIVEREASLHISNV”, -0.162. The figure for “HMLKVHPRDQEENRLLLLKGERLYEESTGDTRVMIDMWLRKFEEALNSRSRENIEDARRELKEQLAELDN” is -0.312. Turning to “HMLLAPLRLGAAPDIKAQAPLATILARHNGEMEAKDLWQRFGGEIDAFYLQLKTEVAHGWIVEPEPA”, the “soluble fraction (log2)” value was determined as 0.0787. The figure for “HMLLELINLQVKILENEELKIIGKVIDLENEKNNLLVIELLKDQKKVLVPFVKEIVPLIDIKNNFIMINPP” is -0.703. Take “HMLLFNVADIVKRAKRVLNFKTDAELAAYLGVSRPTLSNWIARNGIDFPLLLEKLKEIDYNWLLVGKGKPE”: the “soluble fraction (log2)” value is -0.114. The figure for “HMLLGPDALTNRELDVLALLERRLSNKEIGALLYISPRTVKRHTINIYQKLHVNNRRAAVAQAKALGLMPD” is -0.489; for “HMLLKIRPDLDGNEIMKLLNIAAGPNVGKAYEHLLELRLEHGPLGKERAEQELMNWWSARSQ” it is -0.371; for “HMLLNSLIDTLAAEKATVVPGTEVFKLYDTYGFPWELTEEIASERGFTIDHEGFEAAMKEQRERAREARV” it is 0.0336. Consider “HMLLNTSQLKELYNRYDKKNSSLISIPFSAISDEPLKFYKWYAALFQIELNVKAFADVDSKQIIIYKGTK”, for which the “soluble fraction (log2)” value was -0.175.

Turning to “HMLLRSEDAIELGKSQLEDALAPYKIETLDTGTVQQLLDSLKLNSLESLYQEIGLGNRMSTIIAHRLLGE”, the “soluble fraction (log2)” value was -0.88.

As to “HMLLSFYGTYGNVKLTGKELEDLQKEFPFDYQARIDRLSAYMESSGRKYHSHFATIRSWAQDDAKKN”, the “soluble fraction (log2)” value came out at 0.173. Regarding “HMLLSYDIAEYIEKYIHEHGLQPGDRLPTERELAAQLDITRVSVRQGYKRLLDQGVIRSENGYYVNPPR”, the “soluble fraction (log2)” value is 0.0914.

Turning to “HMLLTDGLERRIDGDKNLHIRISLPMLVKGQIKLAKSGNNESTVKGIFKIESYPGSHPRDVVTEIIEG”, the “soluble fraction (log2)” value is -0.0816. The figure for “HMLLTHPKRVFTYELIMELVWNEDYTFYSKKAVSNHMSNLRKKLKVTPDALDYIKNIVGVGYKFEA” is -0.0812; for “HMLMKKTITHEIELLEFLKQIFPQSSTNKLRKMLSNGRIKINSEIVHKAKYKLQENDTFELLDNPT” it is -0.0208. For the sequence “HMLNEIMDTINKYISDKRNNKVAQNILSAALDELNSQIRVGLKDLNPHSIEEFKENVINSPYIEFEQG”, the “soluble fraction (log2)” value is -0.126. As for “HMLNEWIDYIDEHIKEELTAKNLATVFGYSERHFRNVFQIYYDIKLNDYIRRRKLYFAAQELKKG”, the “soluble fraction (log2)” value was -1.76. As to “HMLNMSVYDKQLLRAVENNPFISQRELARELHWNVDRVKYYMKKWKDKGGLRHVGSSHKGYWEVLVRIEEK”, the “soluble fraction (log2)” value was -0.0578. The figure for “HMLNNVDIHKLSEDLLLYKIKIDIKLKNIEDAISTIDYFSNKFPNSDLMPYVIYEKKLIDNI” is -0.741. As for “HMLNPLLLPFVEAEDFQVKLEILAAMEGKVGEEDLDILYEALDLPKMTGNIEEQIHSIKQYIEMRK”, the “soluble fraction (log2)” value is -1.39. Turning to “HMLNPVEKLLLLSQLYIGRLKGSFVVKEKHHKSTILGEVRELSPEEITLKTDEGYRLIRVDDILTIQL”, the “soluble fraction (log2)” value is -0.704.
